The values that follow come from PMC6599047, “Optimal composition and position of histidine-containing tags improves biodistribution of ^99mTc-labeled DARPin G3” (Scientific Reports, 2019).

Changes are numbered by the printed parent chain.

The chains are these.
B1: [99mTc]Tc(CO)3-G3-H6 (DARPin G3 with a hexahistidine tag at the C-terminus) (designed binder)
chain: MDLGKKLLEAARAGQDDEVRILMANGADVNAKDEYGLTPLYLATAHGHLEIVEVLLKNGADVNAVDAIGFTPLHLAAFIGHLEIAEVLLKHGADVNAQDKFGKTAFDISIGNGNEDLAEILQKLNGSHHHHHH
modifications: [99mTc]Tc(CO)3 on the histidine-containing tag (site-specific radiolabel)
notes: whole chain as printed; source: E. coli BL21(DE3), purified (HisTrap HP, MonoQ); not shown: His6, C-terminal, kept
B2: [99mTc]Tc(CO)3-G3-(HE)3 (DARPin G3 with a HEHEHE tag at the C-terminus) (designed binder)
chain: DLGKKLLEAARAGQDDEVRILMANGADVNAKDEYGLTPLYLATAHGHLEIVEVLLKNGADVNAVDAIGFTPLHLAAFIGHLEIAEVLLKHGADVNAQDKFGKTAFDISIGNGNEDLAEILQKLNGSHEHEHE
modifications: [99mTc]Tc(CO)3 on the histidine-containing tag (site-specific radiolabel)
notes: whole chain as printed (after removal of SUMO at QIGG/DLGKK); source: E. coli BL21(DE3), made as a His6-SUMO fusion, purified (HisTrap HP, cut with ULP1, HisTrap flow-through, MonoQ); not shown: (HE)3 (HEHEHE), C-terminal, kept
B3: [99mTc]Tc(CO)3-H6-G3 (DARPin G3 with a hexahistidine tag at the N-terminus) (designed binder)
chain: MRGSHHHHHHGSDLGKKLLEAARAGQDDEVRILMANGADVNAKDEYGLTPLYLATAHGHLEIVEVLLKNGADVNAVDAIGFTPLHLAAFIGHLEIAEVLLKHGADVNAQDKFGKTAFDISIGNGNEDLAEILQKLN
modifications: [99mTc]Tc(CO)3 on the histidine-containing tag (site-specific radiolabel)
notes: whole chain as printed; source: E. coli BL21(DE3), purified (HisTrap HP, MonoQ); not shown: His6, N-terminal, kept
B4: [99mTc]Tc(CO)3-(HE)3-G3 (DARPin G3 with a HEHEHE tag at the N-terminus) (designed binder)
chain: B3 chain with H6E, H8E, H10E
modifications: [99mTc]Tc(CO)3 on the histidine-containing tag (site-specific radiolabel)
notes: whole chain as printed; source: E. coli BL21(DE3), purified (HisTrap HP without imidazole in lysate and wash, MonoQ); not shown: (HE)3 (HEHEHE), N-terminal, kept

The assay deals with T1, human epidermal growth factor receptor (HER2) (human (endogenous in SKOV3, BT474, …, UniProt P04626 23-1255)).
T1 construct: HER2, endogenous on the human cancer cell lines SKOV3, BT474 (high expression) and DU145 (low expression); source: endogenous, on living SKOV3, BT474 and DU145 cells
Kind of assay: radioligand binding; LigandTracer, real time, living SKOV3 cells, room temperature; 0.5 and 2 nM radiolabeled G3 variant, then medium replaced for dissociation; fitted to a one-to-two Langmuir binding model (TraceDrawer); duplicates. The settings on record: one partner purified.
Regarding B1, the “KD1 (high affinity interaction of the one-to-two fit)” value (“KD1” below) was found to be 118 ± 38 pM and the “KD2 (low affinity interaction of the one-to-two fit)” value (“KD2” below) worked out at 2.5 ± 1.5 nM.

Take B2: the “KD1” value turned out to be 89 ± 11 pM and the “KD2” value amounted to 1.8 ± 0.5 nM.

Consider B3, for which the “KD1” value worked out at 90 ± 5 pM and the “KD2” value worked out at 3.3 ± 0.2 nM.

On to B4, for which the “KD1” value came out at 96 ± 3 pM and the “KD2” value came out at 1.2 ± 0.1 nM.
